Earlier results as cited in PMC12583094, “A novel antioxidant peptide from black soybean [Glycine max (L.) Merr.] with verified MPO interaction and multi-scale antioxidant activity” (Frontiers in Nutrition, 2025).

Target: MPO (Homo sapiens) (UniProt P05164)
Experiment: SPR

Chain of MPO (Homo sapiens) (P05164 165-273, chain 1 of 2): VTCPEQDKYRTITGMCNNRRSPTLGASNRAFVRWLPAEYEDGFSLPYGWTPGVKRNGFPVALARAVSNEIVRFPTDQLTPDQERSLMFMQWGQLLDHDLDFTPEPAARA
Chain of MPO (Homo sapiens) (P05164 279-745, chain 2 of 2): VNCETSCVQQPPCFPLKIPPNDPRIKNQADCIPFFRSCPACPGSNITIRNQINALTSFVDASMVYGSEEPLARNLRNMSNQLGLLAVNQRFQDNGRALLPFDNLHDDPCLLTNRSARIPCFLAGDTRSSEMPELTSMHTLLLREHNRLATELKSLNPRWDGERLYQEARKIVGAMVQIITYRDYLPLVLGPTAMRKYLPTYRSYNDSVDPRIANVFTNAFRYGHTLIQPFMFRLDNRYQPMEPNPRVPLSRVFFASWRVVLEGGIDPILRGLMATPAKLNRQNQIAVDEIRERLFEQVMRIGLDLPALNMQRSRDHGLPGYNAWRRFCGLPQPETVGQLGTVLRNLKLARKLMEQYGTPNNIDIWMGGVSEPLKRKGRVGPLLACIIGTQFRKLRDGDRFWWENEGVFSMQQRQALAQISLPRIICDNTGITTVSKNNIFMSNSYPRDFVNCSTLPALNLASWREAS

**Q.** Which Kd does the source give for SPIN (from UniProt A0A0H3K703) here?
**A.** 10 nM
